Activity (% modified chromatids) data for one substance are collected here from patent US20110269234.

For this series, the system named is KDR-targeted ZFN pair (artificial). The series is described as follows: cell_activity. The conditions noted are these: HeLa; up to about 25% with 30 C cold shock versus 1% at 37 C.

Turning to KDR locus target, the activity (% modified chromatids) was found to be 25.
